# Reference: the RNAGym collection of RNA variant scans (doi:10.1073/pnas.2313332121)
# B1: TPR t1 (parent)
# chain: GACCAAUCUGCCCUCAGAGCUCGAGAACAUCUUCGGAUGCAGAGGAGGCAGGCUUCGGUGGCGCGAUAGCGCCAACGUCCUCAACCUCCAAUGCAUCCCACCACAUGAUGAUGCCUGAAGAGCCUUGGUUUUUUG
# Variants of: B1
# Test: polymerase ribozyme fitness, log enrichment relative to wild type (log ratio); higher = more active; in vitro selection for triplet polymerase activity
# Outline: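 Fitness measures genotype enrichment against wild-type enrichment on a logarithmic scale, with inverse-variance-weighted averaging of replicates. The logarithm is base 2, and genotypes were kept only with ≥10 input reads and ≥1 read per output in Illumina sequencing. The sequenced libraries came from one triplicate in vitro selection round, including frozen incubation at −7 °C, of PCR-built, transcribed mutant libraries of each subunit of a heterodimeric triplet polymerase ribozyme.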
row,Variant,polymerase ribozyme fitness (log ratio)
1,GACCAAUCUGCCCUCAGAGCUCGAGAACAUCUUCGGAUGCAGAGGAGGCAGGCUUCGGUGACGCGAUAGCGCCAACGUCCUCAACCUCCAAUGCUUCCCACCACAUGAUGAUGCCUGAAGAGCCUUGGUUUUUUG,0.338
2,GACCAAUCUGCCCUCAGAGCUCGAGAACAUCUUCGGAUGCAGAGGAGGCAGGCUUCGGUGACGCGAUAGCGCCAACGUCCUCCACCUCCAAUGCAUCCCACCACAUGAUGAUGCCUGAAGAGCCUUGGUUUUUUG,-0.418
3,GACCAAUCUGCCCUCAGAGCUCGAGAACAUCUUCGGAUGCAGAGGAGGCAGGCUUCGGUGACGCGAUAGCGCCAACGUCCUCGACCUCCAAUGCAUCCCACCACAUGAUGAUGCCUGAAGAGCCUUGGUUUUUUG,-1.47
4,GACCAAUCUGCCCUCAGAGCUCGAGAACAUCUUCGGAUGCAGAGGAGGCAGGCUUCGGUUGCGCGAUAGCGCCAACGUCCUCAACCUCCAAUGCAUCCCACCACAUGAGGAUGCCUGAAGAGCCGUGGUGUUUUG,-5.39
5,GACCAAUCUGCCCUCAGAGCUCGAGAACAUCUUCGGAUGCAGAGGAGGCAGGCUUCGGUGACGCGAUAGCGGCAACGUCCUCAACCUCCAAUGCAUCCCACCACAUGAUGAUGCCUGAAGAGCCUUGGUUUUUUG,0.08
6,GACCAAUCUGCCCUCAGAGCUCGAGAACAUCUUCGGAUGCAGAGGAGGCAGGCUUCGGUUGCGCGAUAGCGCCAACGUCCACAACCUCCAAUGCAUCCCACCACAUGAUGAUGCCUGAAGAGCCUUGGUUUUUUG,-0.347
7,GACCAAUCUGCCCUCAGAGCUCGAGAACAUCUUCGGAUGCAGAGGAGGCAGGCUUCGGUUGCGCGAUAGCGCCAACGUCCUCAACCUCCAAUGCAUCCCACCACAUGAUGAUGCCUGAACAGCCUUGGUUUUUUG,1.43
8,GACCAAUCUGCCCUCAGAGCUCGAGAACAUCUUCGGAUGCAGAGGAGGCAGGCUUCGGUUGCGCGAUAGCGCCAACGUCCUCAACCUCCAAUGCAUCCCACCACAUGAUGAUGCCUGAAGAGCCUUGGAUUUUUG,-1.37
9,GACCAAUCUGCCCUCAGAGCUCGAGAACAUCUUCGGAUGCAGAGGAGGCAGGCUUCGGUGACGCGAUAGCGCCAACGUCCUCAACCUCCACUGCUUCCCACCACAUGAUUAUGCAUGAAGAGCCCUGGUCUUUUG,-3.6
10,GACCAAUCUGCCCUCAGAGCUCGAGAACAUCUUCGGAUGCAGAGGAGGCAGGCUUCGGUGACGCGAUAGCGCCAACGUCCUCCACCUCCAAUGCAUCCCACCACAUGAUUAUGCCUUAAGAGCCUUGGUUUUUUG,-5.13
11,GACCAAUCUGCCCUCAGAGCUCGAGAACAUCUUCGGAUGCAGAGGAGGCAGGCUUCGGUGACGCGUUAGCGCCAACGCCCUCAACCUCCAAUGCAUCCCACCACAUGAUGAUGCCUGGAGAGCCUUGGUUUUUUG,-1.83
12,GACCAAUCUGCCCUCAGAGCUCGAGAACAUCUUCGGAUGCAGAGGAGGCAGGCUUCGGUGACGCGAUAGCGCCAACGUCCUCAACCUCCGAUGCAUCCCACCACAUGAUGAUGCCUGAAGAGCCUUGGUUUUUUG,-0.68
13,GACCAAUCUGCCCUCAGAGCUCGAGAACAUCUUCGGAUGCAGAGGAGGCAGGCUUCGGUGACGCGAUAGCGCCUACGUCCUCAACCUCCAAUGCAUCCCACCACAUGAUGAUUCCUGAAGAGCCUUGGUUUUUUG,-4.56
14,GACCAAUCUGCCCUCAGAGCUCGAGAACAUCUUCGGAUGCAGAGGAGGCAGGCUUCGGUGACGCGAUAGCGCAAACGUCCUCAACCUCCAAUGCAUCCCACCACAUGAUGAUGCCUGAAGAGCCUUGGUUUUUUG,-0.202
15,GACCAAUCUGCCCUCAGAGCUCGAGAACAUCUUCGGAUGCAGAGGAGGCAGGCUUCGGUGACGCGAUAGCGCCAACGUCCUCACCCUGCAAUGCAUCCCACCACAUGAUGAUGCCUGAAGAGCCUUGGUUUUUUG,0.0148
16,GACCAAUCUGCCCUCAGAGCUCGAGAACAUCUUCGGAUGCAGAGGAGGCAGGCUUCGGUUGCGCGAUAGCGCCAACGUCCUCAACCUCCAAUGCAUCCCACCACAUGAUGAGGCCUGAAGGGCCUUGGUUUUAAG,1.66
17,GACCAAUCUGCCCUCAGAGCUCGAGAACAUCUUCGGAUGCAGAGGAGGCAGGCUUCGGUGACGCGAUAGCGCCAACGUCCUCAACCUCCAAUGCAUCCCACCUCAUGAUGAUCCCUGAAGAGCCUUGGUUUUUUG,-6.41
18,GACCAAUCUGCCCUCAGAGCUCGAGAACAUCUUCGGAUGCAGAGGAGGCAGGCUUCGGUUGCGCGAUAGCGCCAACGUCCUCAACCUCCAAUGCAUCCCACCACAUGAUGACGCCUGAAGAGCCUUGGUUUUUUG,1
19,GACCAAUCUGCCCUCAGAGCUCGAGAACAUCUUCGGAUGCAGAGGAGGCAGGCUUCGGUGACGCGAUAGCGCCAACGUCCUCAACCUCCACUGCAACCCACCACAUGAUGAUGCCUGAAGAGCCUUGGUUUUUUG,-1.49
20,GACCAAUCUGCCCUCAGAGCUCGAGAACAUCUUCGGAUGCAGAGGAGGCAGGCUUCGGUGACGCGAUAGCGCCAACGUCCUCAACCUCCAAUGCAUCCCACCACAUGAUGAUGCCUGCACAGCCUGGGUUUUUUG,-4.35
21,GACCAAUCUGCCCUCAGAGCUCGAGAACAUCUUCGGAUGCAGAGGAGGCAGGCUUCGGUGACGCGAUAGCGCCAACGUCCUCAUCCUCCAAUCCAUCCCACCACAUGAUGAUGCCUGAAGAGCCUUGAUUUUUUG,-3.36
